Results on 70 sequences are retold here after the domain aggregation screens of Martell et al. (2025).

The data set is described as follows: soluble fraction after stress (log2 fold change); higher = more stays soluble; pooled small domains, quantitative proteomics. The settings on record: stress: 75 degC.
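Note: 20 min heating vs room temperature control held 20 min.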

On to “HMAPQVKIPNLVDVSQRQAEAILNSYGLKVGHLIYKPDLAKDAVLGFMFNGRSLKAGDELAKGSSIDLILG”, for which the “soluble fraction (log2)” value is -0.277.
Under “HMAPRDKADKYVAAGIAEELVPILQKVGYYLVTDLKDVKAQKIQQQIGEIIKKYKLDIEKPSVQDIEGWN” stands -0.192; under “HMAQDIEQLEKAVSFYTRMDPAAAALSITNLDQKTAVNILMRMKDKQASAVLESMTAERSSELIDSIARK”, 0.0292.
As for “HMAQELPYEKVTMNGKMFYVYHVKAGEGLYLISRTFSVNADEILKFNPSIENGLKSGQVLYIPIK”, the “soluble fraction (log2)” value is -1.23.
As for “HMAQISDESALYDLVKSVLDANPQSIADYKAGRDRALGFLMGQAMKLSKGKANPPVINKILKEMLDK”, the “soluble fraction (log2)” value is 0.161.
In the case of “HMAQKQLYIAGTDYTKNSTSQLVLAYFPAKPSSIKIFFDGIYQNKDKWSLFGKTIIFGLPISSNAVEVHYE”, the “soluble fraction (log2)” value is -4.34.
Under “HMAQLPADLSKVKSSQISDQQLTQIAQQAKNSGQSEQAVLQELKQRGLPDTEIQALGARISGLMQ” stands 0.211.
Under “HMAQLVVTVDKLNKRTAIPVTLSDKSSNDSVVEKGFRFEGFPFVNTATNGKKWYKDREGFFYWAGGLMEEA” stands 0.0903; under “HMAQMDDPEMVLHIYNKMIQQRLFDTAVGYSYLKDLQEYLQSIPFIRKEDIFPIPVQHPQVEESLRKAK”, -0.689; under “HMAQTSAELIIEYLKRNDGFMELTDKSPADEIYETFGISKKNFKMAVGSLYKNRVIEIGQNGIRLVE”, -0.426.
The figure for “HMAQTTKWREIHKVKRKETIFGIARDNGLTVDELIEANPEMTKPGYELKKGDFIYIPFPSKNIDTNAGTQT” is 0.498; for “HMARAESYGDIARLEQLLDEHANIAALDPGKLPAVRQQIWTLMRAARMDHDLGLAERPEDDSFDDMLLHV” it is 0.208.
For the sequence “HMARAPIYPDGLTQREVEVLSLVAAGKTDREIAEELFIALRTVTTHVGNILNKIGAANRTEAAGYATRQGL”, the “soluble fraction (log2)” value was -1.7.
The figure for “HMARAVSPLEAIPGVGPRRRQQLLKQLGGMQEVARAGVEDLSRVPGISRALAQQIYDAFHGD” is -0.287; for “HMARDPWDVLGVAKTATNDEIKRAFKRQAMMTHPDKQGGSEERFKEVNEAYSHIKDEQSRAKYQNSQ” it is 0.158; for “HMARDSYNGVQRTISTLLGQGNYDRAYDVAVGARGQMSKQQWSDVAKRIYEVSGIKIDDSVKY” it is -0.113.
Consider “HMARRSRADAVRNREALIDAAKAAFTEAGPDVSLEEIARRAGVGIGTLYRHFPTRDAVIEAVYR”, for which the “soluble fraction (log2)” value was -0.185.
With “HMARRTPPPTVSELNALLRVAAPHIQRVILLGIYTGARIGPSELFSLKWDDVDLTRGVIGIRL”, the “soluble fraction (log2)” value is -0.0659.
On to “HMARTDVKLREVAQELLRMGLLEESLRPHLYRTALASMERLNATLEPLDLIARADEIRGLVFLAVRH”, for which the “soluble fraction (log2)” value is -2.73.
Regarding “HMARVSGIDLPKNKRGYIGLTYIYGIGRSTALHILNSAGVDPEKKVHEWNDDETTAIRNIINAEIKVEGAL”, the “soluble fraction (log2)” value is -0.631.
The figure for “HMASAKTVAQSGTYKFAKTTAIKSSASDAASTVGTYYKGNTVNYNAKVTTNGQTWLRYTSYSGAQYYVKVS” is -3.66.
In the case of “HMASANMPDVLGLDAETAKQVLAAKGFTKVEIYPMESSEPANRVVRQSEDRDTMVALTKEILLGVSNGS”, the “soluble fraction (log2)” value was found to be 0.0531.
Under “HMASENISYSQFINQVKNSMVESVSIEADGKTISGKYKSGSSFVTYGLNDPKLVDDLLSNNVEIL” stands 0.143; under “HMASGLITEEQAKSKALAHAGLSASQVNFIWVKQDWEDGRRVYEVEFYTDDYQEYDYEIDARTGEILSFDY”, -1.84; under “HMASIGTATVTADNLRLRSEAGTGAETLTMAPKGAEVTVEEDAGDGWYKVTYGDTEGYMSGEWLKITLA”, -0.0355.
Take “HMASLIGEEKALQIALEHAGVALENVAYSQVKLENDDGRWEYDTEFYSGSKEYDYEIDASTGEILGYDHD”: the “soluble fraction (log2)” value is 0.0872.
With “HMASLSITVNGETRRAAPGSIADLVRAIGLDPAKVAVERNGEIAPRSTLADVALADGDVLEIVHFVG”, the “soluble fraction (log2)” value was -0.359.
For “HMASMEDILAEAKTKFQEGDLFKSVNEGIQGTHKLTLPLRIKESRIVDASGAAVYREGIWATVDK”, the “soluble fraction (log2)” value was determined as 0.166.
Under “HMASMNPVWLEFPNIPWGSAGWRMGWGEDYMRRWAKWYISLAEVERQSYKSDWPEPQEWEGFYAFMEHGT” stands -1.85; under “HMASPEIAFLNKFYQLSNTVNEISVMKIVKNYQEKYQQRISIEQMAKTLKTMGYAVRNNIISNIEEAPV”, -1.53.
On to “HMASPRVWKDASSGRTLTGEFVELTKDAVKVRRANGDVVSLPLSRLTEEDITFAKGASETGGA”, for which the “soluble fraction (log2)” value was determined as 0.198.
As to “HMASVLTAKLSEREVDVLNLLARGFTNADIAAQLHLSEGTVRNHVSTIFAKLDVNDRTQAAVIAIRHGL”, the “soluble fraction (log2)” value was -2.52.
On to “HMASVLTGMLGRVTGELAPKGIVMVGNETWTAVSEDDSVIRIGEPVEVRSVEGLILTVFRRID”, for which the “soluble fraction (log2)” value is -2.66.
Regarding “HMATAADLLQSATGVPRSDALLLLAKLLGVAKERLIAHPETVVSEKTQATFSDWIERVRGGFPTTYLLG”, the “soluble fraction (log2)” value was -0.393.
For the sequence “HMATAEETTPLWARNRLSHAIFGPGSVTGEDERSFEVAFDNGDTLNFSKKSAHLYFTAMSSR”, the “soluble fraction (log2)” value is -0.169.
Take “HMATARPPPPPESRVEVLFDGRWYAGTVVGGALDEHRATVFFDADRLSQVINFAETGIRVLGT”: the “soluble fraction (log2)” value was -0.123.
The figure for “HMATEYIIPTVTNKKLEEAIGIAQLRGFEISVDEYKPSDIDEGTVLEQSPAAGTNAKQGDTISVTVSSG” is 0.476.
Take “HMATFTPYLVRITASVLNIRKGPGTTYAVTGQIKDRGVYTIVEQKGNWGRLKSGAGWISLSYTKK”: the “soluble fraction (log2)” value is -3.25.
The figure for “HMATPAFEMYKVRRGDTPAGLAKEWGFPDMASFYRINPDARSDWKRGLQLVKPMNEMAVLQATA” is -0.302; for “HMATPKYMELVRWINEQIESKNLVPGQKMYSENTLKEMFGVSRQTVRHAIGVLENEGVIRRIQGSGTYIN” it is -1.51.
In the case of “HMATPSTGQVSVVRLNLRVSPSISSPVVTRLTQGDTVKILAASDDGRWYKVATADGRTGWLYTIYITAE”, the “soluble fraction (log2)” value was -1.34.
For “HMATQTGTVKWFNEGKGFGFIAPDDGSKDLFAHFSEIKTTGFKTLAEAQRVEFEVTEGRKGLQASNIK”, the “soluble fraction (log2)” value came to 0.442.
With “HMATRLPFGFAKRFGVLVEGKDDQITVYHKDGLQTAVILEIQRYLARPFRFEAVTPEEFERRLGLAYQS”, the “soluble fraction (log2)” value was -2.44.
For “HMATSNDTQITGSLALRFDGSGDTFTVNVNGDDKLEINTEGTVIYKPLTTAPTYVSGGLFFSSSGDFYVG”, the “soluble fraction (log2)” value turned out to be 0.00147.
The figure for “HMATTIDFTVGDDVQVMNGPLESFTGKVTELNEASQKVKVDVVMFGRVTNVELDFVQVKKIT” is -1.04; for “HMATTIEAPMPGKILDVKVNPGQAVSYGQVVLTMEAMKMETEIVAPADGTVASVLVKSGDMVETGAALVSL” it is -0.344; for “HMATTMSADWRPSEDAVGILVNAEINARFIEDAIPEFVLYWRERGAVHGAWNSKFIEHIRRQWAKFSAS” it is -2.84.
The figure for “HMATTPEETILEYINKNNRISKQEIADLMGITRDGVSYHIKKLRKNGLLEWIGSPSNGHWEIIE” is 0.38; for “HMATVHPIRIQGGMTTQQGGKTVWLWVSDEGRLMTEDEIAGESGGTVSSRMVRGVRVLTGTGVIYG” it is -1.96; for “HMATVIDVATTLGRPITDPDEQRQVLNWIGKTERIISARLGDLAALDRQILADVISEVVARRARN” it is -0.495.
“HMATVNIGNLTFTHKGDYASGTTYAKNDVVYYSTNGNAYIAKQATQGNAPTSTAHWDVFAAGSGG”: the “soluble fraction (log2)” value is 0.245.
Under “HMAVDAASSTIGKNVEVSVANEKGDYENFNGKVKSASIKDGVVYLELELKDTGEIKEVPYSSLTKIT” stands 0.0437; under “HMAVDPSVLTRRERQALAWIARGLSNKEVARGLNLAESTVKVHVQSILRKLNLTSRVQAAVYAIEHGIDK”, -3.08.
For “HMAVFRVGDKVKSMEGMIGEVRGINGRLIQVATPYGLRDYYPHQITKVENPLAAAPAPLNEEA”, the “soluble fraction (log2)” value amounted to 0.767.
For the sequence “HMAVGVFQKEDGYWGYRFSIIVDGKTIARRKFTDENGSKLRTKSEAVKARAAAMVAARMERVS”, the “soluble fraction (log2)” value is -3.46.
The figure for “HMAVIILDEPTLGLDPAVRISLWQAIQSARDSTMSAFLITTHYIKEVADYLSAVKILDHGREVASGNPSAL” is -0.313.
Under “HMAVKLELYRVFKEVAETGNISAAAKNLYISQSAVSQSIKQLETALQARLFARSPRGVTLTGEGQMLYQYV” stands -1.5; under “HMAVKNAQIDVQQFFYSKSGEVDFGRKIKAIQSHFTPERLQSFTAAVPPSQWVSQLQVMWDSL”, -2.12; under “HMAVLGIQPVFHRSTGQTVYKSSVNTAKGRVYLGLFPTLTEALEIKLKYMQEHGHTKGITNLTNKLKEL”, -1.05.
“HMAVPFTIDVSQNGRYFIEEDNQVVEVSIGFLEDRFLRIIKSNPDIEVIIRGDAKASYESIAELLAVLQ”: the “soluble fraction (log2)” value was -0.904.
“HMAVQPMDQVKAWLAEDNPADIKLLVPVLQKLDLLDYEQVRGEVADRAGVRKSLLDEAVKGN”: the “soluble fraction (log2)” value came out at 0.0888.
“HMAVRTELLALPAGWHGDASRLSTALAALQGVREAVVIASEGVAYLKVHGHDWDRDGARELLQN”: the “soluble fraction (log2)” value is -1.12.
The figure for “HMAVSGRGSIIGGVATVLDDFADSGKVWLEGEAWQARSSVPLKQDQEVVVRAMDGLVLVVEPVA” is -0.442; for “HMAVSNWQKLVSSIQTQLKILALYHGPEDGIYGPNTRSAIMLYEENIGLPVTGEPSRELLAHMLDQTD” it is -1.64.
In the case of “HMAVTNLTAKQISDTRWRVTWDSTLASPTYYVYRDGLLMMQTRQELYEFDAARGEQVQIDVLDDMAAAPAE”, the “soluble fraction (log2)” value was -0.853.
For the sequence “HMAWAVRAGEGVLIRAGQPGFSATTRGTALSNGAIGEGVRVRNLGSGKEIQAWVVDKGEVETR”, the “soluble fraction (log2)” value came out at 0.00511.
On to “HMAWIAVATKEDYSEYEWKELSPTTDWSTQTFDLGDLAGKTIYAVKMFFDHDTDVKDYKFNLGQLSITSN”, for which the “soluble fraction (log2)” value is -0.189.
Under “HMAYRLDVRNQTKGTYLVIQKKYWDKEKKQSRTKHHMSLGYVHDLQKLYSDPITHYKEVINQMNAEEKG” stands -2.09.
“HMAYSEEDRRRVREELLTTALKLMSTQGIQHTTVEQVYRSVGISRSFFYAFFPTKEDLIVEAL”: the “soluble fraction (log2)” value was determined as 0.0495.
The figure for “HMDAAANTLRILKALSESPMSADRLAELLMEEGSGRNPRTIRRYIRALREAGFGVEHREGRYVL” is -0.387.
